Assay results published in US9950027 (TXP PHARMA, dated 2018).
Where two headings read alike, the source gives them in different places. Blank lines part the entries; values can stand above or below the binder they belong to. Side-chain parts run from the residue outwards. [ ]: non-standard residue; d: D form. Ac‑(Lys-Ac)Lys‑Lys = branched amino acid probe attached to the ε-amino group of the lysine

Assays:
[1] = target: T1, MC4r (human recombinant, CHO cells) (human, UniProt P32245 1-332); test: radioligand binding, CHO cells expressing human MC4r; affinity as a multiple of αMSH's
T1 construct: whole, on cells

[2] = target: T2, MC1r (murine B16-F1 cells) (murine, UniProt Q01727 1-315); test: radioligand binding, murine B16-F1 cells expressing MC1r; affinity as a multiple of αMSH's
T2 construct: whole, on cells; also called MCr1

[3] = target: T3, MC3r (human recombinant, CHO cells) (human, UniProt P41968 1-323); test: radioligand binding, CHO cells expressing human MC3r; affinity as a multiple of αMSH's
T3 construct: whole, on cells

[4] = target: T1, MC4r (human recombinant, CHO cells); test: displacement of 125I-NDP-αMSH, CHO cells expressing human MC4r; affinity as a multiple of αMSH's
Experimental: (§1) Murine B16-F1 cells expressing MCr1 are used for determination of binding affinity to and agonist activity against the MC1r. Human recombinant CHO cells expressing MC3r, MC4r or MC5r are used for determination of affinity to or agonist activity against the MC3r, MC4r and MC5r, respectively. […] The test items are tested in a concentration range of 10^-13 to 10^-5M.

[5] = target: T3, MC3r (human recombinant, CHO cells); test: displacement of 125I-NDP-αMSH, CHO cells expressing human MC3r; affinity as a multiple of αMSH's
Experimental: as §1

[6] = target: T3, MC3r (human recombinant, CHO cells); test: displacement of 125I-NDP-αMSH, human recombinant CHO cells expressing MC3r
Experimental: as §1

[7] = target: T2, MC1r (murine B16-F1 cells); test: displacement of 125I-NDP-αMSH, murine B16-F1 cells expressing MC1r
Experimental: as §1

[8] = target: T1, MC4r (human recombinant, CHO cells); test: displacement of 125I-NDP-αMSH, human recombinant CHO cells expressing MC4r
Experimental: as §1

[9] = target: T4, MC5r (human recombinant, CHO cells) (human, UniProt P33032 1-325); test: displacement of 125I-NDP-αMSH, human recombinant CHO cells expressing MC5r
T4 construct: whole, on cells
Experimental: as §1

[10] = target: T2, MC1r (murine B16-F1 cells); test: displacement of 125I-NDP-αMSH, murine B16-F1 cells expressing MC1r; affinity as a multiple of αMSH's
Experimental: as §1

[11] = target: T3, MC3r (human recombinant, CHO cells); test: cell-based or functional assay
[12] = target: T2, MC1r (murine B16-F1 cells); test: cell-based or functional assay
[13] = target: T1, MC4r (human recombinant, CHO cells); test: cell-based or functional assay
[14] = target: T4, MC5r (human recombinant, CHO cells); test: cell-based or functional assay
[15] = target: T4, MC5r (human recombinant, CHO cells); test: displacement of 125I-NDP-αMSH, CHO cells expressing human MC5r; affinity as a multiple of αMSH's
Experimental: as §1

[16] = target: T5, recombinant human type 2 Formyl peptide receptor (FPR2) (human, UniProt P25090 1-351); test: cell-based or functional assay
T5 sequence (looked up): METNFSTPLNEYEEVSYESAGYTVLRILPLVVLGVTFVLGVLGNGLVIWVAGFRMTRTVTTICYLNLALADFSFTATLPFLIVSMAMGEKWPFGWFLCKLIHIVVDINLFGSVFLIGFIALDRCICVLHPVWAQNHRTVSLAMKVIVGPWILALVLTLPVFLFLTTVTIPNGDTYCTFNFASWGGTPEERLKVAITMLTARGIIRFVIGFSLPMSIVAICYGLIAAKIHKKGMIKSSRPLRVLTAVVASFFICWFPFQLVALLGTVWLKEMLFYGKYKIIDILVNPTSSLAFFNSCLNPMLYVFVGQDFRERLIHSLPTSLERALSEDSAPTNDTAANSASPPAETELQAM

human GLP-2 receptor = target: T6, human GLP-2 receptor (human, UniProt O95838 1-553); test: cell-based or functional assay
T6 sequence (looked up): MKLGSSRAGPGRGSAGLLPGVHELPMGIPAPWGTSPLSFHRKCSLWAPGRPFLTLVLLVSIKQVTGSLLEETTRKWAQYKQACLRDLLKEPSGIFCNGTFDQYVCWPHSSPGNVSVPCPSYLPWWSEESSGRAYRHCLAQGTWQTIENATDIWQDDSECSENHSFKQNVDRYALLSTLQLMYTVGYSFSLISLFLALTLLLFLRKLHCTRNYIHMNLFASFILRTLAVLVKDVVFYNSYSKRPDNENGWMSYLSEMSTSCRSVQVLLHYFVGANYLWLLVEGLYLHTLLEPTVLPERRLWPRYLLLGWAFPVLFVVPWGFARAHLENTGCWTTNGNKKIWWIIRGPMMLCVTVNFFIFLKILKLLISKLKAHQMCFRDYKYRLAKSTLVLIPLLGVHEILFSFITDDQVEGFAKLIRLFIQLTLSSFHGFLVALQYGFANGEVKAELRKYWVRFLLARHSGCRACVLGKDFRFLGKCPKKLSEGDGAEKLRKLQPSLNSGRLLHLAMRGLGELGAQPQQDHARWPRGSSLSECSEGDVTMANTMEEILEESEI

[17] = target: T3, MC3r (human recombinant, CHO cells); test: displacement of 125I-NDP-αMSH, CHO cells expressing human MC3r (method of Example 2, not restated)
Experimental: as §1

[18] = target: T2, MC1r (murine B16-F1 cells); test: displacement of 125I-NDP-αMSH, murine B16-F1 cells expressing MC1r (method of Example 2, not restated)
Experimental: as §1

[19] = target: T2, MC1r (murine B16-F1 cells); test: cell-based or functional assay; remark: listed apart in the source
[20] = target: T1, MC4r (human recombinant, CHO cells); test: cell-based or functional assay; remark: listed apart in the source
[21] = target: T4, MC5r (human recombinant, CHO cells); test: cell-based or functional assay; remark: listed apart in the source
[22] = target: T4, MC5r (human recombinant, CHO cells); test: displacement of 125I-NDP-αMSH, CHO cells expressing human MC5r (method of Example 2, not restated)
Experimental: as §1

[23] = target: T1, MC4r (human recombinant, CHO cells); test: displacement of 125I-NDP-αMSH, CHO cells expressing human MC4r (method of Example 2, not restated)
Experimental: as §1

T1 sequence (P32245 whole entry): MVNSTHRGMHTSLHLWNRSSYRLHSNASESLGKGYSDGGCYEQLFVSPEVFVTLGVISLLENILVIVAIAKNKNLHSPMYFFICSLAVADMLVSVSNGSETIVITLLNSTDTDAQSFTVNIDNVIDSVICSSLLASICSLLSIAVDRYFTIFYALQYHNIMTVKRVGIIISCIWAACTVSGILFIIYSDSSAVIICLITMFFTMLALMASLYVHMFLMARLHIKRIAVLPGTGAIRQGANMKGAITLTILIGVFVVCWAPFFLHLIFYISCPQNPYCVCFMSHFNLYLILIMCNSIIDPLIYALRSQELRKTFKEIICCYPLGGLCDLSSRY
T2 sequence (Q01727 whole entry): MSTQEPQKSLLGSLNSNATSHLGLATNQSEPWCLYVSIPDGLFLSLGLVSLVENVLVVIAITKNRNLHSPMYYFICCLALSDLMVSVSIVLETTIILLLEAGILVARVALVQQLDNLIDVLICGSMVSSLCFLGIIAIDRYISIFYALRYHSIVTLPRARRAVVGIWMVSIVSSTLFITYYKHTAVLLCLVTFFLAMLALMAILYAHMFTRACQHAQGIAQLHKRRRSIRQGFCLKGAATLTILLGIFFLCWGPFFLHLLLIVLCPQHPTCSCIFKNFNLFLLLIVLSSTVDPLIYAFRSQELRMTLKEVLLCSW
T3 sequence (P41968 whole entry): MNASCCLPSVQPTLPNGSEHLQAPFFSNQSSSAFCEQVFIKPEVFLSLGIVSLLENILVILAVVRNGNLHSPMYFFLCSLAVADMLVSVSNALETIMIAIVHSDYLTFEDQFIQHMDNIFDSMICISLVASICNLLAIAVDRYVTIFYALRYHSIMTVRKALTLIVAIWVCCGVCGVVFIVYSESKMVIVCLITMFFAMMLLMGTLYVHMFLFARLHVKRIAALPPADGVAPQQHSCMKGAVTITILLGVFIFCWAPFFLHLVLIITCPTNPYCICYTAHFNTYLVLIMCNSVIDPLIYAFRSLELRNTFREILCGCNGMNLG
T4 sequence (P33032 whole entry): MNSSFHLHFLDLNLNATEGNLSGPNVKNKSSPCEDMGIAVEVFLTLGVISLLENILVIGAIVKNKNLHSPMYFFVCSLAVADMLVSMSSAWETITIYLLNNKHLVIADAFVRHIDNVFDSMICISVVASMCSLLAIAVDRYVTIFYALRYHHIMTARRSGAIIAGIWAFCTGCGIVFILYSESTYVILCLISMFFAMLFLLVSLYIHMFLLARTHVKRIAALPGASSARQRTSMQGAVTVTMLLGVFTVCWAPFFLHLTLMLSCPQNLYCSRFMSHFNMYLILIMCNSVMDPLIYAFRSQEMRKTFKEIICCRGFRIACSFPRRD

Ki [6]: 24 nM
Ki [7]: 1.2 nM
Ki [8]: 26 nM
Ki [9]: 193 nM
MCr binding relative to Control peptide 1 (αMSH) [10]: 4 fold
EC50, cAMP accumulation (agonist activity) [11]: 53 nM
EC50, cAMP accumulation (agonist activity) [12]: 8.9 nM
EC50, cAMP accumulation (agonist activity) [13]: 18 nM
EC50, cAMP accumulation (agonist activity) [14]: 625 nM
MCr binding relative to Control peptide 1 (αMSH) [15]: 2 fold
B4: α-MSH Analogue 1: Ac-(Ac-Lys-Lys)Lys-Ser-Tyr-Ser-Met-Glu-His-Phe-Arg-Trp-Gly-Lys-Pro-Val-NH2 (peptide)
peptide: KSYSMEHFRWGKPV
modifications: alpha-amino group of Lys1 acetylated; Ac-Lys-Lys attached to the epsilon-amino group of Lys1 (branched amino acid probe Ac-(Ac-Lys-Lys)Lys-); C-terminal amide

MCr binding affinity relative to αMSH [1]: 2.9 fold
MCr binding affinity relative to αMSH [3]: 4.6 fold
B5: Analogue 6 (Example 3): Ac-(Ac-Lys-Lys)Lys-Tyr-Val-Nle-Gly-His-Phe-Arg-Trp-Asp-Arg-Phe-Gly-NH2 (peptide)
peptide: KYVXGHFRWDRFG
modifications: alpha-amino group of Lys1 acetylated; Ac-Lys-Lys attached to the epsilon-amino group of Lys1; Nle at position 4 (written X); C-terminal amide
notes: BAP-modified γ-MSH analogue; X = norleucine

MCr binding relative to Control peptide 1 (αMSH) [4]: 53 fold
MCr binding relative to Control peptide 1 (αMSH) [10]: 9.4 fold
MCr binding relative to Control peptide 1 (αMSH) [5]: 42 fold
B7: Analogue 4 (Example 2): Ac-(Ac-Lys-Lys)Lys-Ser-Ser-Ile-Ile-Ser-His-DPhe-Arg-Trp-Gly-Lys-Pro-Val-NH2 (peptide)
peptide: Ac-K([Lys-Lys-Ac])SSIISH[dF]RWGKPV-NH2
notes: BAP-modified α-MSH analogue

Second part, the binder before the results:

B1: Analogue 8 (Example 3): Ac-(Ac-Lys-Lys)Lys-Tyr-Val-Nle-Gly-His-DPhe-Arg-DTrp-Asp-Arg-Phe-Gly-NH2 (peptide)
peptide: KYVXGHFRWDRFG
modifications: alpha-amino group of Lys1 acetylated; Ac-Lys-Lys attached to the epsilon-amino group of Lys1; Nle at position 4 (written X); D-Phe at position 7; D-Trp at position 9; C-terminal amide
notes: as for B5
MCr binding affinity relative to αMSH [1]: 10.7 fold
MCr binding affinity relative to αMSH [2]: 7.3 fold
MCr binding affinity relative to αMSH [3]: 37 fold

B2: Analogue 2 (Example 2): Ac-(Ac-Lys-Lys)Lys-Ser-Tyr-Ser-Met-Glu-His-Phe-Arg-Trp-Gly-Lys-Pro-(D-Val)-NH2 (peptide)
peptide: KSYSMEHFRWGKPV
modifications: alpha-amino group of Lys1 acetylated; Ac-Lys-Lys attached to the epsilon-amino group of Lys1; D-Val at position 14; C-terminal amide
notes: BAP-modified α-MSH analogue
MCr binding relative to Control peptide 1 (αMSH) [4]: 8.5 fold
MCr binding relative to Control peptide 1 (αMSH) [5]: 3.3 fold

B3: Analogue 7 (Example 3): Ac-(Ac-Lys-Lys)Lys-Tyr-Val-Nle-Gly-His-DPhe-Arg-Trp-Asp-Arg-Phe-Gly-NH2 (peptide)
peptide: KYVXGHFRWDRFG
modifications: alpha-amino group of Lys1 acetylated; Ac-Lys-Lys attached to the epsilon-amino group of Lys1; Nle at position 4 (written X); D-Phe at position 7; C-terminal amide
notes: as for B5
MCr binding affinity relative to αMSH [1]: 37 fold
MCr binding affinity relative to αMSH [3]: 46 fold

B6: Analogue 7 (Example 4, BAP-modified AnxA1 N-terminal fragment): Ac-Ala-Met-Val-Ser-Glu-Phe-Leu-(Ac-(Lys-Ac)Lys-Lys)Lys-Gln-Ala-Trp-NH2 (peptide)
peptide: Ac-AMVSEFLK(Ac‑(Lys-Ac)Lys‑Lys)QAW-NH2
EC50, agonist activity (aequorin light emission) [16]: 1560 nM

B8: GLP-2 (1-34) control peptide: … (peptide)
peptide: H-HADGSFSDEMNTILDNLAARDFINWLIQTKITDR-OH
EC50 (nM), cAMP production (HTRF) (human GLP-2 receptor): 0.36 nM

B9: γ-MSH Analogue 1: Ac-(Ac-Lys-Lys)Lys-Tyr-Val-Met-Gly-His-Phe-Arg-DTrp-Asp-Arg-Phe-Gly-NH2 (peptide)
peptide: KYVMGHFRWDRFG
modifications: alpha-amino group of Lys1 acetylated; Ac-Lys-Lys attached to the epsilon-amino group of Lys1; D-Trp at position 9; C-terminal amide
Ki [17]: 15 nM
Ki [18]: 3.8 nM
EC50, cAMP accumulation (agonist activity) [19]: 68 nM
EC50, cAMP accumulation (agonist activity) [20]: 252 nM
EC50, cAMP accumulation (agonist activity) [21]: 555 nM
Ki [22]: 215 nM
Ki [23]: 150 nM

B10: Analogue 5 (Example 3): Ac-(Ac-Lys-Lys)Lys-Tyr-Val-Nle-Gly-His-Phe-Arg-DTrp-Asp-Arg-Phe-Gly-NH2 (peptide)
peptide: KYVXGHFRWDRFG
modifications: alpha-amino group of Lys1 acetylated; Ac-Lys-Lys attached to the epsilon-amino group of Lys1; Nle at position 4 (written X); D-Trp at position 9; C-terminal amide
notes: as for B5
MCr binding affinity relative to αMSH [1]: 2.8 fold
MCr binding affinity relative to αMSH [2]: 1.9 fold
MCr binding affinity relative to αMSH [3]: 38 fold

B11: Analogue 3 (Example 2): Ac-(Ac-Lys-Lys)Lys-Ser-Tyr-Ser-Nle-Glu-His-DPhe-Arg-Trp-Gly-Lys-Pro-Val-NH2 (peptide)
peptide: KSYSXEHFRWGKPV
modifications: alpha-amino group of Lys1 acetylated; Ac-Lys-Lys attached to the epsilon-amino group of Lys1; Nle at position 5 (written X); D-Phe at position 8; C-terminal amide
notes: BAP-modified α-MSH analogue; X = norleucine
MCr binding relative to Control peptide 1 (αMSH) [4]: 47 fold
MCr binding relative to Control peptide 1 (αMSH) [5]: 41 fold
